Assay results published in publication PMC4620744 (Molecular cell, 2015).

Target: full-length H2A-H2B (S. cerevisiae, UniProt P04911 1-132; P02293 1-131)
Test: ITC

B1: Pob3-C (domain or fragment)
chain: EVQERLQTALGSDSDEEDINMGSAGEDDESVDEDFQVSSDNDADEVAEEFDSDAALSDAEGGSDEERPSKKPKVE
- Kd: 300 nM
- stoichiometry N: 1
